How the values were obtained:
[1] = target: T1, Suv39h1 R24,K27A double mutant (FLAG-tagged) (human, UniProt O43463 1-412, R24A | K27A); experiment: pull-down
T1 sequence: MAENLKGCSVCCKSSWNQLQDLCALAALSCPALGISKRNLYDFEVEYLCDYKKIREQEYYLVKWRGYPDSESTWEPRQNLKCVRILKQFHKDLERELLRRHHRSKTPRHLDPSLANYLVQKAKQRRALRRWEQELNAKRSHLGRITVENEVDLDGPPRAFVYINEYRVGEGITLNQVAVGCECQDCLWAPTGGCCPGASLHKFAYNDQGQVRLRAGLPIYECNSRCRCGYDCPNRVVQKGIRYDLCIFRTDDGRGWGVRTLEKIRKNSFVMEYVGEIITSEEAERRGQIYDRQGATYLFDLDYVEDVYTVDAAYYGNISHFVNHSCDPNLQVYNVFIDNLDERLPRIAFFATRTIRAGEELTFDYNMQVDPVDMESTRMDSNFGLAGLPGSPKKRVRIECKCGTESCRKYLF

[2] = target: T2, Suv39h1, wild type (FLAG-tagged, recombinant human) (human, UniProt O43463 1-412); experiment: pull-down
T2 sequence: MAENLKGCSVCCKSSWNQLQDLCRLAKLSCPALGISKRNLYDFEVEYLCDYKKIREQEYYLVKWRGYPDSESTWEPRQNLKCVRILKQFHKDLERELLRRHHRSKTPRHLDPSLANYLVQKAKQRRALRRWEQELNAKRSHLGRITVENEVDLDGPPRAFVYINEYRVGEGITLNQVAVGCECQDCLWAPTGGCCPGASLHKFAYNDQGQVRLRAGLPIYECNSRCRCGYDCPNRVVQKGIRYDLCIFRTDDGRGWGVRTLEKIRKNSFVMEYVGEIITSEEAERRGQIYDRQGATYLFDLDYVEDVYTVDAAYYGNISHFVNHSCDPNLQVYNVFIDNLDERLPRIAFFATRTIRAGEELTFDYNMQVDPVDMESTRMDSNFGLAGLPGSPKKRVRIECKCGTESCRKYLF

B1: HP1β (human Cbx1), His6-tagged (natural protein)
chain: not shown
- binding result [1]: binds
- binding result [2]: binds
